{
  "source": "paper PMC3830444",
  "binders": {"B1": {"name": "H6HV3_(54-66)G6 synthetic peptide (peptide)", "chain": "GDFEPIPEDAYDE", "modifications": "not checked"}},
  "target": "FPR-chloromethyl ketone-thrombin (active site-inhibited α-thrombin) (human), P00734",
  "experiment": "ELISA",
  "data": [
    {"binder": "B1", "values": [
      {"measurement": "IC50", "value": 5, "unit": "µM"}
    ]}
  ]
}
